This is an account of results in PMC6314159.

This series addresses TP53 (Homo sapiens) (UniProt P04637). In words: EMSA-seq. On the technique in general: In EMSA bound probe runs differently from free probe, usually more slowly.

Chain of TP53 (Homo sapiens) (P04637 whole entry): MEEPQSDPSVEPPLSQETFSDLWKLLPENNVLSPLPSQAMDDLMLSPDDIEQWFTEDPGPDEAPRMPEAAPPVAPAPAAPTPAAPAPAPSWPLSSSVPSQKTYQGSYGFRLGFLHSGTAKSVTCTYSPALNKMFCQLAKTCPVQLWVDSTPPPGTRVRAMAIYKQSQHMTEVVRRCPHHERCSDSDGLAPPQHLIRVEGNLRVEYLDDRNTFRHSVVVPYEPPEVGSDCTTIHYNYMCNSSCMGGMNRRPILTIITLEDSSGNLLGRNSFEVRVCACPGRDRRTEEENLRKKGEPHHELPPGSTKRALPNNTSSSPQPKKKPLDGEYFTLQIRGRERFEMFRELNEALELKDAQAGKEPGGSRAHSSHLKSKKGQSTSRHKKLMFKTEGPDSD

As to “GATGGACCCTATACGCGGCCGCCCTGGAGAATCCCGGTGCCGAGGCCGCTCAATTGGTCGTAGACAGCTCTAGCACCGCTTAAACGCACGTACGCGCTGTCCCCCGCGTTTTAACCGCCAAGGGGATTACTCCCTAGTCTCCAGGCACGTGTCAGATATATACATCCTGTGCGGGCATGTCCGGGCATGTCCGCCGGTGCCAGTCGGATAGTGTTCC (double strand) [High SHL 8 nucleosome (linker)]”, the Kd (commonly a measure of binding affinity in units of concentration) stood at 19 nM.
